# Like-named read-outs stand apart in the source and are kept apart here.
# Legend:
# [1] = assay type: physicochemical; conditions: for Radiochemical purity in the final formulation at room temperature: final formulation vial, HPLC C8, gamma detector, n = 3
# Procedure: The radiochemical purity (RP) was determined using HPLC analysis, a reverse phase column Agilent ZORBAX Eclipse Plus C8 4.6x150mm 5 μm column, flux 2.0 mL/min and the following solvent gradient: (A) TFA 0.1% (v/v) in water, (B) TFA 0.1% (v/v) in acetonitrile; 0–7 min 0 %B, 7–10 min (0–50) %B with GAMMA detector. The stability in the labeling milieu, after purification and preconditioning [^18F]-AlF-PSMA, was performed after incubation the final formulation vial at room temperature for 4 h. In both cases, samples were analyzed by HPLC, using previously described chromatographic conditions.
# [2] = tested on: LNCaP human prostate cancer cell line xenograft; experiment: In vivo PET/CT imaging of LNCaP xenograft mice, tumour/muscle ratio; design: species or system Nude N: NIH (S) – Foxn 1nu mice; conditions: PET, 60 min after iv injection (33–46 MBq), LNCaP xenograft nude mice, n = 3
# Procedure: Nude N: NIH (S) – Foxn 1nu mice […] were used as prostate cancer tumour model, for in vivo studies. Animals were housed in racks with filtered air under controlled conditions temperature (24 ± 1) °C and relative humidity (40–60)%). They were maintained on a 14:10 h light/dark cycles in the CUDIM animal facility with food and water ad libitum.
# For the development of a xenographic human prostate cancer model, LNCaP human prostate cancer cell line (ATCC ATCC® CRL-1740™).
# A xenographic human prostate cancer model was used as the prostate cancer tumour model. 5 million LNCaP cells, suspended in 200 μL of culture media (RPMI) with matrix gel, were injected subcutaneously into the left upper leg of male nude mice (2 months old). Appropriate tumour volumes (100–350 mm^3) were achieved between four to six weeks post inoculation. Percutaneous testorerone was daily applied to each mice. Tumours were measured once a week with a microcalliper in two dimensions, and tumour volumes were calculated as (smaller diameter)^2 x larger diameter x π/6.
# PET/CT scans were performed using a small animal tri-modality PET/SPECT/CT scanner (TriumphTM, TriFoil, Inc., US) based on Quad-APD detector modules coupled with LYSO/LGSO scintillators (spatial resolution: 1.0 mm; axial field of view (FOV): 3.75 cm). […]
# Image processing and semi-quantitative analysis was done using PMOD software, v.3.4. […]
# [3] = cited from earlier work
# Text: However, the work of S. Lütje, et al. presented in the EANM 2017, obtain a product which is not stable in PBS, TFA or ethanol. In addition, the product presented in vivo a bone uptake associated with instability of the compound. (Lütje et al. [2017]). Nevertheless E. Al-Momani et al. (Al-Momami et al. [2017]) reported that the stability of the radiopharmaceutical was highly dependent of the formulation conditions, being stable in saline solution with 1% of ethanol or acetate buffer pH 6, and not stable in ethanol 10%/PBS. || Our results with the automated synthesis were in agreement with those previously reported by N. Malik, et by a manual process. In this paper the optimal pH of labeling turned out to be 5 and the stability was greater than 90% at 4 h post production (Malik et al. [2015]). || Recently Kersemans et al. ([n.d.]) have reported an automated synthesis of this radiopharmaceutical in a modified SynthraFCHOL synthesis module (Synthra GmbH, Hamburg, Germany), with a similar e.o.s yield. 100 to 200 μg of the peptide were necessary to achieve a labelling yield higher than 70%. The radiopharmaceutical was stable in buffer phosphate 5 mM pH 7 at least during 150 min.
# [4] = cited from earlier work; remark: listed apart in the source
# Text: However, the work of S. Lütje, et al. presented in the EANM 2017, obtain a product which is not stable in PBS, TFA or ethanol. In addition, the product presented in vivo a bone uptake associated with instability of the compound. (Lütje et al. [2017]). Nevertheless E. Al-Momani et al. (Al-Momami et al. [2017]) reported that the stability of the radiopharmaceutical was highly dependent of the formulation conditions, being stable in saline solution with 1% of ethanol or acetate buffer pH 6, and not stable in ethanol 10%/PBS.
substance,measurement,setting,value
[^18F]AlF-[GLU-UREA-LYS(AHX)-HBED-CC] [[^18F]AlF-PSMA-11],Time of stability in the final formulation vial,[1],4 h
same,Radiochemical purity in the final formulation vial,"[1]; during 4 h post production, room temperature, HPLC",greater than 90%
same,Radiochemical purity in the final formulation at room temperature,"[1]; room temperature, 1 h post synthesis",94.6 ± 1.8%
same,Radiochemical purity in the final formulation at room temperature,"[1]; room temperature, 2 h post synthesis",92.8 ± 2.5%
same,Radiochemical purity in the final formulation at room temperature,"[1]; room temperature, 3 h post synthesis",93.7 ± 2.0%
same,Radiochemical purity in the final formulation at room temperature,"[1]; room temperature, 4 h post synthesis",94.2 ± 2.8%
same,"mean T/M ratio (T = Tumor, M = muscle)",[2],2.2 ± 0.9
same,"Stability in PBS, TFA or ethanol",[3],not stable
same,Stability in ethanol 10%/PBS,[3],not stable
same,Stability at 4 h post production,[3]; pH 5,greater than 90%
same,Stability in saline solution with 1% of ethanol or acetate buffer pH 6,[3]; pH 6,stable
same,Time of stability in buffer phosphate 5 mM pH 7,[3]; pH 7,≥ 150 min
same,In vivo bone uptake associated with instability of the compound,[4],bone uptake
